The record followed here is the Immune Epitope Database (IEDB).

What is called Kd is the free concentration of one partner at which half of the binding sites on the other are occupied at equilibrium, for simple one-to-one binding. Usually IC50 stands for the concentration that gives 50% inhibition. Higher therefore signals a need for much substance.

Assay [1] has as its target HLA-B*07:02. Description: IEDB peptide-MHC binding, purified MHC/direct/fluorescence; filed as Kd, often an IC50 or EC50 that approximates it; ≥ and ≤ were set here for values at or beyond the usual limits of such assays.
In assay [2] the target is HLA-A*26:01. Description: IEDB peptide-MHC binding, purified MHC/competitive/radioactivity; filed as Kd, often an IC50 or EC50 that approximates it; ≥ and ≤ were set here for values at or beyond the usual limits of such assays.
Assay [3] concerns the target HLA-A*02:01. Description: IEDB peptide-MHC binding, purified MHC/competitive/fluorescence; ≥ and ≤ were set here for values at or beyond the usual limits of such assays.
Assay [4] concerns the target HLA-B*44:03. Description: IEDB peptide-MHC binding, purified MHC/competitive/radioactivity; filed as Kd, often an IC50 or EC50 that approximates it; ≥ and ≤ were set here for values at or beyond the usual limits of such assays.
Assay [5] deals with HLA-A*01:01. Description: IEDB peptide-MHC binding, purified MHC/direct/fluorescence; filed as Kd, often an IC50 or EC50 that approximates it; ≥ and ≤ were set here for values at or beyond the usual limits of such assays.
Assay [6] concerns the target HLA-B*44:02. Kind of assay: IEDB peptide-MHC binding, purified MHC/competitive/radioactivity; filed as Kd, often an IC50 or EC50 that approximates it; ≥ and ≤ were set here for values at or beyond the usual limits of such assays.
In assay [7] the target is HLA-A*69:01. Kind of assay: IEDB peptide-MHC binding, purified MHC/direct/fluorescence; filed as Kd, often an IC50 or EC50 that approximates it; ≥ and ≤ were set here for values at or beyond the usual limits of such assays.
In assay [8] the target is HLA-A*02:01. Described as above.
Assay [9] concerns the target HLA-B*40:01. The description is as above. As to conditions: source organism: Rickettsia prowazekii.
Assay [10] deals with HLA-B*58:01. The description is as above. To be noted: source organism: Rickettsia prowazekii.
For assay [11], the target named is HLA-B*15:01. Described as above.
Assay [12] concerns the target HLA-A*02:01. Description: IEDB peptide-MHC binding, purified MHC/competitive/fluorescence; filed as Kd, often an IC50 or EC50 that approximates it; ≥ and ≤ were set here for values at or beyond the usual limits of such assays.
The target in assay [13] is HLA-B*27:05. Kind of assay: IEDB peptide-MHC binding, purified MHC/direct/fluorescence; filed as Kd, often an IC50 or EC50 that approximates it; ≥ and ≤ were set here for values at or beyond the usual limits of such assays. As to conditions: source organism: Mycobacterium tuberculosis.
Assay [14] addresses HLA-A*03:01. The assay is described as above.
In assay [15] the target is HLA-A*11:01. The description is as above. To be noted: source organism: Homo sapiens.
The mark [16] stands for this setting: source organism: Mycobacterium tuberculosis.
[17] abbreviates: source organism: Dengue virus 1 Brazil/97-11/1997.
Where [18] appears, read: source organism: Cryptosporidium parvum.
Where [19] appears, read: source organism: Dengue virus 2 Jamaica/1409/1983.
Setting [20] is: source organism: Sudan ebolavirus.
Where [21] appears, read: source organism: Bacillus thuringiensis.
Where [22] appears, read: source organism: Mycobacterium tuberculosis str. Haarlem.
[23] abbreviates: source organism: Orthohantavirus hantanense.
[24] abbreviates: source organism: Zaire ebolavirus.
The mark [25] stands for this setting: source organism: Dengue virus 3 Martinique/1243/1999.
Setting [26] is: source organism: Cryptosporidium hominis.

On to GAAGARGAL, for which the Kd in [1] (source organism: Hepacivirus hominis) was found to be 12.8 nM.
In [1] (setting [16]), RNRDQSNAL gave a dissociation constant Kd of 112 nM.
Consider ETLGEKWKNR, for which the Kd in [2] (source organism: Dengue virus 2 Peru/IQT2913/1996) was determined as 14600 nM.
Consider LLWFNYLFG, for which the IC50 in assay [3] (source organism: Variola virus) is at least 327000 nM.
Take EEYVDYMPVM: the Kd in assay [4] (source organism: Dengue virus 4 Philippines/H241/1956) is 869 nM.
In turn, ASLIPDATY came in with a Kd in [5] (source organism: Mammarenavirus lassaense) of 17100 nM.
Turning to VEGLSGATW, the results for the Kd in assay [4] (setting [17]) and in [6] (setting [17]) were 89.1 nM and 30 nM, respectively.
As for LRFANPLSN, in assay [3] (source organism: Vaccinia virus), the IC50 is at least 164000 nM.
As to KLIQIEKVL, the Kd in assay [7] (setting [18]) is at least 20000 nM; in assay [8] (setting [18]), 3250 nM.
With GQFGSGWTW, the equilibrium dissociation constant (Kd) amounted to 2870 nM in [9], 168 nM in assay [10] and 138 nM in [11] (source organism: Rickettsia prowazekii).
For EEEEAGVLW, the Kd is 162 nM in [4] (setting [19]) and 84.7 nM in [6] (setting [19]).
As for LLWAFAHRQ, the Kd in assay [7] (setting [16]) was at least 20000 nM; in assay [8] (setting [16]), 551 nM.
In assay [12] (source organism: Vaccinia virus Copenhagen), EIVNLLDNKV displayed a Kd of at least 20000 nM.
LILAKPKET: the IC50 in assay [3] (setting [20]) was determined as 10800 nM.
In the case of ELGGGFGTL, the results for the Kd in assay [7] (setting [21]) and in assay [8] (setting [21]) were 680 nM and 7000 nM, respectively.
On to IESALNDTW, for which the Kd worked out at 67.9 nM in assay [4] (setting [19]) and 127 nM in [6] (setting [19]).
Turning to DIRTLLPILL, in assay [12] (source organism: Variola virus), the Kd amounted to 737 nM.
As for SEMIIPKNF, the equilibrium dissociation constant (Kd) in assay [4] (setting [19]) came to 12.9 nM; in assay [6] (setting [19]), 10.7 nM.
The sequence GLVRALTAF displayed a dissociation constant Kd in assay [11] (source organism: Mycobacterium tuberculosis variant bovis BCG str. Pasteur 1173P2) of 255 nM.
Turning to FRWDYIPPT, the Kd in assay [13] was found to be 332 nM.
Turning to RMGAAVTPY, the Kd in [14] (setting [22]) is 254 nM; in [11] (setting [22]), 98.8 nM.
Consider SLAALFYSL, for which the dissociation constant Kd in [12] (source organism: Bacillus anthracis str. A0488) was 1.8 nM.
Regarding SELFRSRLDSY, the Kd in [6] (source organism: Homo sapiens) was 5.4 nM.
In [3] (source organism: Hepatitis C virus subtype 1b), KLSSLGLNAV came in with a concentration for half-maximal inhibition (IC50) of 25 nM.
Turning to LLPGVAHSI, the results for the Kd in assay [7] (source organism: Amur virus) and in assay [8] (source organism: Amur virus) were at least 20000 nM and 4.2 nM, respectively.
Turning to GTIGAVSLDF, the Kd in [2] (setting [19]) was found to be 454 nM.
The sequence EMFGGTPAV had a Kd in assay [8] (setting [16]) of 2.1 nM.
For GELCEDTMTY, in [4] (setting [17]), the Kd was 25 nM.
STEIGLLVG yielded a Kd in assay [15] of 12400 nM.
Sequence SMVNGVVKL showed a dissociation constant Kd in assay [7] (source organism: Dengue virus 1 Singapore/S275/1990) of at least 20000 nM.
For WVIILFQKA, the IC50 in [3] (setting [20]) is at least 341000 nM.
As to RMMASSMSQ, the Kd in assay [14] (source organism: Bacillus cereus) is at least 20000 nM.
Take GLQADAPHL: the Kd was at least 20000 nM in assay [7] (setting [23]) and 104 nM in assay [8] (setting [23]).
ALTAGAGAY: in [11] (setting [22]), the Kd was 450 nM.
GVATDVPSA: the IC50 in assay [3] (setting [24]) came out at 1460 nM.
SLTKLFSYG came in with an IC50 in assay [3] (source organism: Variola virus) of 8920 nM.
Turning to MENLLWKQI, the Kd was found to be 93.4 nM in [4] (setting [25]) and 6.79 nM in assay [6] (setting [25]).
As to EEFWKLVDR, in assay [4] (source organism: Dengue virus 3 Sri Lanka/1266/2000), the Kd came to 3110 nM.
On to FQWSDDPFI, for which the Kd in assay [7] (setting [26]) is at least 20000 nM; in assay [8] (setting [26]), 7.3 nM.
For the sequence NLEHGLFPQ, the IC50 in assay [3] (setting [24]) was at least 304000 nM.
Regarding ETEQPTLDY, the values for the Kd in assay [7] (source organism: Homo sapiens) and in [5] (source organism: Homo sapiens) were 2890 nM and 16.3 nM, respectively.
In the case of SAVNMTSRM, the Kd in assay [2] (setting [17]) worked out at 1220 nM.
On to TVIALFLAH, for which the Kd in assay [2] (setting [17]) stood at 12200 nM.
Regarding PECPSASRAW, in [6] (setting [25]), the Kd worked out at 1120 nM.
In the case of ETLGEKWKSR, in [2] (setting [19]), the Kd is 14300 nM.
Consider ELIDGISLG, for which the Kd in [2] (source organism: Dengue virus 4 Dominica/814669/1981) was 472 nM.
